Holding throughout (test): initial-rate kinetics, Michaelis-Menten fit
Common to all, as to assay type: biochemical, Corynebacterium glutamicum
What all share (conditions): PBS with 0.5 mM MgCl2, pH 7.4, 37 °C

Substrate in data set [1]: O=C(O)[C@H](O)COP(=O)(O)O
The source says: initial-rate kinetics, Michaelis-Menten fit on PGMA / PMGA / pgma (phosphoglycerate mutase)

Substrate in data set [2]: O=C[C@H](O)COP(=O)(O)O
The source says:
initial-rate kinetics, Michaelis-Menten fit on TAL (transaldolase)

Substrate in data set [3]: O=C(O)[C@@H](CO)OP(=O)(O)O
The text has this:
initial-rate kinetics, Michaelis-Menten fit on ENO (enolase; ENO-Y)

Substrate in data set [4]: O=C(CO)COP(=O)(O)O
The source says: initial-rate kinetics, Michaelis-Menten fit on TPI (triosephosphate isomerase)

Substrate in data set [5]: Nc1ncnc2c1ncn2[C@@H]1O[C@H](COP(=O)(O)OP(=O)(O)OP(=O)(O)O)[C@@H](O)[C@H]1O
The text has this:
initial-rate kinetics, Michaelis-Menten fit on GLK (glucokinase)

Substrate in data set [6]: O=C[C@H](O)COP(=O)(O)O
The text has this: initial-rate kinetics, Michaelis-Menten fit on GAPDH (glyceraldehyde 3-phosphate dehydrogenase)
This is another data set of the same source.

Substrate in data set [7]: O=C(CO)[C@H](O)[C@H](O)COP(=O)(O)O
The source says: initial-rate kinetics, Michaelis-Menten fit on RPI (ribose-5-phosphate isomerase)

Substrate in data set [8]: O=C(CO)[C@H](O)[C@H](O)COP(=O)(O)O
The text has this: initial-rate kinetics, Michaelis-Menten fit on RPE (ribulose-5-phosphate 3-epimerase)
This is another data set of the same source.

B1: PGMA / PMGA / pgma (phosphoglycerate mutase) (Corynebacterium glutamicum ATCC 13032) (protein)
chain: MTNGKLILLRHGQSEWNASNQFTGWVDVNLTEQGEAEAKRGGELLVEAGVLPGVVYTSLLRRAIRTANIALNAADRHWIPVIRDWRLNERHYGALQGLDKAATKEKYGDDQFMEWRRSYDTPPPELADDAEYSQANDPRYADLDVVPRTECLKDVVVRFVPYFEEEILPRAKKGETVLIAAHGNSLRALVKHLDGISDADIAELNIPTGIPLVYEIAEDGSVVNPGGTYLDPEAAAAGAAAVANQGNK
A word on the Km: it is the substrate concentration at which the rate is half of its maximum. The Vmax is the top rate of the reaction or transport when substrate is in excess. For orientation: kcat means the maximal rate divided by the concentration of active sites. With B1, in data set [1], the Km was 4.44 ± 0.32 mM, the maximal velocity (Vmax) stood at 43.2 µmol/min/mg and the kcat was determined as 20.4 ± 1.05 s⁻¹.

B2: TAL (transaldolase) (Corynebacterium glutamicum ATCC 13032) (protein)
chain: MSHIDDLAQLGTSTWLDDLSRERITSGNLSQVIEEKSVVGVTTNPAIFAAAMSKGDSYDAQIAELKAAGASVDQAVYAMSIDDVRNACDLFTGIFESSNGYDGRVSIEVDPRISADRDATLAQAKELWAKVDRPNVMIKIPATPGSLPAITDALAEGISVNVTLIFSVARYREVIAAFIEGIKQAAANGHDVSKIHSVASFFVSRVDVEIDKRLEAIGSDEALALRGKAGVANAQRAYAVYKELFDAAELPEGANTQRPLWASTGVKNPAYAATLYVSELAGPNTVNTMPEGTIDAVLEQGNLHGDTLSNSAAEADAVFSQLEALGVDLADVFQVLETEGVDKFVASWSELLESMEARLK
Consider B2, for which, in data set [2], the Michaelis-Menten constant (Km) turned out to be 0.29 ± 0.08 mM, the Vmax was determined as 6.44 µmol/min/mg and the kcat was 4.24 ± 0.47 s⁻¹.

B3: ENO (enolase; ENO-Y) (Corynebacterium glutamicum ATCC 13032) (protein)
chain: MAEIMHVFAREILDSRGNPTVEAEVFLDDGSHGVAGVPSGASTGVHEAHELRDGGDRYLGKGVLKAVENVNEEIGDELAGLEADDQRLIDEAMIKLDGTANKSRLGANAILGVSMAVAKAAADSAGLPLFRYIGGPNAHVLPVPMMNIINGGAHADSGVDVQEFMIAPIGAETFSEALRNGAEVYHALKSVIKEKGLSTGLGDEGGFAPSVGSTREALDLIVEAIEKAGFTPGKDIALALDVASSEFFKDGTYHFEGGQHSAAEMANVYAELVDAYPIVSIEDPLQEDDWEGYTNLTATIGDKVQIVGDDFFVTNPERLKEGIAKKAANSILVKVNQIGTLTETFDAVDMAHRAGYTSMMSHRSGETEDTTIADLAVALNCGQIKTGAPARSDRVAKYNQLLRIEQLLGDAGVYAGRSAFPRFQG
For B3, the Km in data set [3] is reported as 0.06 ± 0.01 mM.

B4: TPI (triosephosphate isomerase) (Corynebacterium glutamicum ATCC 13032) (protein)
chain: MARKPLIAGNWKMNLDHQQAIGTVQKLAFALPKEYFEKVDVAVTVPFTDIRSVQTLVEGDKLEVTFGAQDVSQHESGAYTGEVSASMLAKLNCSWVVVGHSERREYHNESDELVAAKAKAALSNGISPIVCVGEPLEIREAGTHVEYVVEQTRKSLAGLDAAELANTVIAYEPVWAIGTGKVASAADAQEVCKAIRGLIVELAGDEVAEGLRILYGGSVKAETVAEIVGQPDVDGGLVGGASLDGEAFAKLAANAASVA
In the case of B4, in data set [4], the Km stood at 5.43 ± 0.16 mM, the Vmax is 160 µmol/min/mg and the kcat stood at 75.7 ± 2.11 s⁻¹.

B5: GLK (glucokinase) (Corynebacterium glutamicum ATCC 13032) (protein)
chain: MPQKPASFAVGFDIGGTNMRAGLVDESGRIVTSLSAPSPRTTQAMEQGIFDLVEQLKAEYPVGAVGLAVAGFLDPECEVVRFAPHLPWRDEPVREKLENLLGLPVRLEHDANSAAWGEHRFGAAQGADNWVLLALGTGIGAALIEKGEIYRGAYGTAPEFGHLRVVRGGRACACGKEGCLERYCSGTALVYTARELASHGSFRNSGLFDKIKADPNSINGKTITAAARQEDPLALAVLEDFSEWLGETLAIIADVLDPGMIIIGGGLSNAADLYLDRSVNHYSTRIVGAGYRPLARVATAQLGADAGMIGVADLARRSVVEAN
Consider B5, for which, in data set [5], the Km was found to be 0.81 ± 0.08 mM, the Vmax is 37.7 µmol/min/mg and the kcat amounted to 22.2 ± 1.07 s⁻¹.

B6: GAPDH (glyceraldehyde 3-phosphate dehydrogenase) (Corynebacterium glutamicum ATCC 13032) (protein)
chain: MTIRVGINGFGRIGRNFFRAVLERSDDLEVVAVNDLTDNKTLSTLLKFDSIMGRLGQEVEYDDDSITVGGKRIAVYAERDPKNLDWAAHNVDIVIESTGFFTDANAAKAHIEAGAKKVIISAPASNEDATFVYGVNHESYDPENHNVISGASCTTNCLAPMAKVLNDKFGIENGLMTTVHAYTGDQRLHDAPHRDLRRARAAAVNIVPTSTGAAKAVALVLPELKGKLDGYALRVPVITGSATDLTFNTKSEVTVESINAAIKEAAVGEFGETLAYSEEPLVSTDIVHDSHGSIFDAGLTKVSGNTVKVVSWYDNEWGYTCQLLRLTELVASKL
As for B6, in data set [6], the Km is 1.47 ± 0.11 mM, the Vmax is 15.7 µmol/min/mg and the kcat is 9.71 ± 0.36 s⁻¹.

B7: RPI (ribose-5-phosphate isomerase) (Corynebacterium glutamicum ATCC 13032) (protein)
chain: MRVYLGADHAGFETKNAIAEHLKAHGHEVIDCGAHTYDAEDDYPAFCIEAASRTVNDPGSLGIVLGGSGNGEQIAANKVKGARCALAWSVETARLAREHNNANLIGIGGRMHSEEEALAIVDAFLEQEWSNAERHQRRIDILADYERTGIAPVVPNE
For B7, in data set [7], the Km stood at 0.42 ± 0.06 mM, the maximum rate (Vmax) worked out at 11.2 µmol/min/mg and the kcat amounted to 3.39 ± 0.22 s⁻¹.

B8: RPE (ribulose-5-phosphate 3-epimerase) (Corynebacterium glutamicum ATCC 13032) (protein)
chain: MAQRTPLIAPSILAADFSRLGEQVLAVPDADWIHVDIMDGHFVPNLSFGADITAAVNRVTDKELDVHLMIENPEKWVDNYIDAGADCIVFHVEATEGHVELAKYIRSKGVRAGFSLRPGTPIEDYLDDLEHFDEVIVMSVEPGFGGQSFMPEQLEKVRTLRKVIDERGLNTVIEIDGGISAKTIKQAADAGVDAFVAGSAVYGAEDPNKAIQELRALAQ
As for B8, in data set [8], the Km is on record as 2.81 ± 1.25 mM, the maximal velocity (Vmax) was found to be 430 µmol/min/mg and the kcat was 179 ± 22.2 s⁻¹.

Values taken from article PMC10713844, “Characterization of the enzyme kinetics of EMP and HMP pathway in Corynebacterium glutamicum: reference for modeling metabolic networks” (Frontiers in Bioengineering and Biotechnology, 2023).
